Results reported in the DeepSol protein solubility set.

Test: soluble on expression in E. coli; label from the status in PepcDB or PDB records

Sequence | soluble on expression in E. coli
MKITVIGAGNVGATTAFRLAEKQLARELVLLDVVEGIPQGKALDMYESGPVGLFDTKVTGSNDYADTANSDIVIITAGLPRKPGMTREDLLMKNAGIVKEVTDNIMKHSKNPIIIVVSNPLDIMTHVAWVRSGLPKERVIGMAGVLDAARFRSFIAMELGVSMQDINACVLGGHGDAMVPVVKYTTVAGIPISDLLPAETIDKLVERTRNGGAEIVEHLKQGSAFYAPASSVVEMVESIVLDRKRVLPCAVGLEGQYGIDKTFVGVPVKLGRNGVEQIYEINLDQADLDLLQKSAKIVDENCKMLESTIG | soluble
SNTKKEIIWYKEKAQKTNYSVVYIHGFGASKNEIYPVPNNIAKALNANIFFTRLKGHGINNKNAFRGITTQDWLRDIDEAINIGKLIGDKLVLIGTSNGGTASIWALANYPNEINSAVLISPNIFPYDKRTNIVYYPWGRQIAYLITGGYNKFETKEYKRKEHPTIKSHSSRVQHVDAIIAMMGLVTLLNSYNFNEIKIPLIITHTPNDHTVDPIKINEFIKNYGGEKKDIPIILLENSHAHLPIGNQSYKSAQNTSYFTKYVFDFINKINK | not soluble
MGHHHHHHSHMASLAVSNWPKPMPLIPCLSWSTASGVFTTGVLSKPINWRELEKQYYTQTVYEEEIIHMLEYCGTDSFKMGQEFVKHFTSSADKLTNLNLVSRTLNLDISNQVVSQKPADCHNSSKTSVSATSEGLLLQDTSKMKRFNQTLSTNKSGYTSRNPQSYHLLSKEQSRNSLRKESLIFMKGVMDECTHVANFSVPVDPSLIIVVQAKEDAYIPRTGVRSLQEIWPGCEIRYLEGGHISAYLFKQGLFR | soluble
MSLTQSHHDHVEKQFSSQASEYLTSTVHASGRDLQRLAVRLADYPDASVLDMGCGAGHASFVAAQNVSTVVAYDLSAHMLDVVAQAAEARQLKNITTRQGYVESLPFADNAFDIVISRYSAHHWHDVGAALREVNRILKLGGKLIVMDVMSPGHPVRDIWLQTVEALRDISHTRNYASGEWLTLISEANLIVDNLITDKLPLEFSSWVARMRTPEALVDAIRIYQQSASTEVKTYFALQNEGHHHHHH | not soluble
MKSAIPSLMVQGTTSDAGKSVLVAGLCRVLARKGINVAPFKPQNMALNSAVTKDGGEIGRAQAVQAQACNIEPTVHMNPVLIKPNSDTGAQIILQGKALSNMDAASFHDYKKVAMNTVLDSFSKLTKEFDSIMIEGAGSPAEINLREGDIANMGFAEAADVPVIIVADIDRGGVFAHLYGTLALLSESEQTRVKGFVINRFRGDIRLLQSGLDWLEEKTGKPVLGVLPYLHGLNLEAEDAITAQQELNSEVKLNVVVPVLTRISNHTDFDVLRLNPDINLSYVGKGEKI | not soluble
MAHHHHHHMENIKLGFMGLGQMGSALAHGIANANIIKKENLFYYGPSKKNTTLNYMSSNEELARHCDIIVCAVKPDIAGSVLNNIKPYLSSKLLISICGGLNIGKLEEMVGSENKIVWVMPNTPCLVGEGSFIYCSNKNVNSTDKKYVNDIFNSCGIIHEIKEKDMDIATAISGCGPAYVYLFIESLIDAGVKNGLSRELSKNLVLQTIKGSVEMVKKSDQPVQQLKDNIVSPGGITAVGLYSLEKNSFKYTVMNAVEAACEKSKAMGSK | soluble
MGSDKIHHHHHHRWIPGSRDFDSWLVTLHAQLLAEVDYPRELRMAQVMTEGLAQHEALQSAPVTLRVPHFWPEHCSTNVLTMDYVEGHRAASPEVAALPQSARNELGKAMLQLFFAEVFDLGLVQTDPNFGNYLINDDGTELTLLDFGSVFELDETVRTALCDTIVAGLTNDETRLELALVALGCLKPGAGESAKATFKAFIRNLLEPLRPPEALPPEHLNAEGLYCWGHSELVNRTGQQVARSLTNREFAIPSSDFAMVARKLTGVFTFIAVLDAEFNGHDIAAPYLDEVTAGGET | not soluble
MAADYDKLFRPHEGMEAPDDMAAQPFFDPSASFPPAPASANLPKPNGQTPPPTSDDLSERFVSAPPPPPPPPPPPPPTPMPIAAGEPPSPEPAASKPPTPPMPIAGPEPAPPKPPTPPMPIAGPEPAPPKPPTPPMPIAGPAPTPTESQLAPPRPPTPQTPTGAPQQPESPAPHVPSHGPHQPRRTAPAPPWAKMPIGEPPPAPSRPSASPAEPPTRPAPQHSRRARRGHRYRTDTERNVGKVATGPSIQARLRAEEASGAQLAPGTEPSPAPLGQPRSYLAPPTRPAPTEPPPSPSPQRNSGRRAERRVHPDLAAQHAAAQPDSITAATTGGRRRKRAAPDLDATQKSLRPAAKGPKVKKVKPQKPKATKPPKVVSQRGWRHWVHALTRINLGLSPDEKYELDLHARVRRNPRGSYQIAVVGLKGGAGKTTLTAALGSTLAQVRADRILALDADPGAGNLADRVGRQSGATIADVLAEKELSHYNDIRAHTSVNAVNLEVLPAPEYSSAQRALSDADWHFIADPASRFYNLVLADCGAGFFDPLTRGVLSTVSGVVVVASVSIDGAQQASVALDWLRNNGYQDLASRACVVINHIMPGEPNVAVKDLVRHFEQQVQPGRVVVMPWDRHIAAGTEISLDLLDPIYKRKVLELAAALSDDFERAGRR | soluble
MAGDPMNEEQRKSTSIDILAERDKKTKDYSKYFEHVYQPPSLKEARKRGKEEVNYNDDFQIDEKYRNMGQGKTFLIKTYGCQMNAHDTEVMAGILGALGYTPTEDINHADVILINTCAIRENAENKVFSEIGNLKHLKKEKPETVIGVCGCMSQEESVVNKILKSYQNVDMIFGTHNIHRLPEILEEAYLSKAMVVEVWSKEGDVIENLPKVREGNIKAWVNIMYGCDKFCTYCIVPFTRGKERSRRPEDIIDEVRDLARQGYKEITLLGQNVNAYGKDIDGLAYGLGDLLEDISKIDIPRVRFTTSHPWDFTDRMIEVIANGGNIVPHVHLPVQSGNNAVLKIMGRKYTRESYLDLVNRIKTHIPNVALTTDIIVGYPNETDEQFEETLTLYDEVEFEHAYTYIYSQRDGTPAAKMNDNVPLDVKKDRLQQLNKKVACYSERAMQQYEGQTVQVLCEGVSKKDDTVLSGYTSKNKLVNFKAPKSMIGKIVNVYIDEAKQFSLNGTFISVNDKTVVTQLEHHHHHH | soluble
MVRRLLALSRPLYWLYEKRLLREVKRGPMPRHLGLILDGNRRYARALGLSPTKGHEFGVQKAYEVLEWCLEMGIKTVTVWVFSTDNFKRPPEEVETLMNLFLREAERMAEDHRILEHQVRVRFIGRREGFSPEVVRAIERLERRTEGHRGMFLNIAMGYGGREEIVDAVKRLLLEAEARGLSPKEVAEGLTPEDIARHLYTAGLPDPDFIIRTSGEIRLSGFLLWQSAYSEFYFADVLWPEFRKIDFLRALRSYQARERRFGR | soluble
MPLVGQNVFKSSVTEYDAQTPVVYTVYNEVHQDLLNNTVFLKALADAIDSEIQAAREGKASLLANLQSIRLALQSGSANFGGPAGTTITHNLGTTNFRVSITPTANPDGYLGEIWVVKSSNTMTVFNSGDFRGAFDYQIFKN | not soluble
MVRKALDGQEVVTASAETLRVEALEVRLGENLVLKEVDLAVEPGEIVALLGPSGSGKTTLLRAVAGLLRPTGGRILLGKEVFFDGKKGVFLPPERRNLGLVFQSYALWPQRTVYENVAYGLRLRKVPEKAVRERVLGLLDRLGLTGLERRYPGALSGGQQQRVSLARALAYDPKLLLLDEPLSNLDAKLRDQARVWLRETLKATGKAALFVTHDQGEAMAIADRIALLNEGRMEQVGTPEELYRNPKTLFVADFLGNPNVVEALVVGLEGSTARLELAGFPLRARAMGALVPGRLAKLVLRPEALRPAGVGEVNALEGALAHSLYLGSHYEHWVRVGDALLRFYSPLPLGEARVRLAVDPEAALAYPG | soluble
MSSVVVVGTQWGDEGKGKITDFLSEHAEVVARYQGGNNAGHTIVFGGVKYKLHLIPSGIFYKEKICVIGNGLVVDPKALLEELKYLHDRGVSTDNLRVSNRAHVILPYHLKQDELEEASKGDNKIGTTKKGIGPAYMDKAARIGIRMADLLDREAFKEKLEQNLAQKNRLFEKMYDTEGFSVDEIFEEYFEYGQQIAQYVCDTSVVLNDALDNNHRVLFEGAQGVMLDIDHGTYPFVTSSNPIAGGVTVGTGVGPAKVTRVVGVCKAYTSRVGDGPFPTELHDEIGHQIREVGREYGTTTGRPRRVGWFDSVVVRHARRVSGLTDLSLNSIDVLTGIPTLKICVAYKCDGKVIDEVPANLNILAKCEPVYEELPGWTEDITGVRSLDELPENARKYVERVSELTGIQLSMFSVGPDRNQTNIVRNVYEA | not soluble
MKLSKDTIAILKNFASINSGILLSQGKFIMTRAVNGTTYAEANISDEIDFDVALYDLNSFLSILSLVSDDAEISMHTDGNIKIADTRSTVYWPAADKSTIVFPNKPIQFPVASVITEIKAEDLQQLLRVSRGLQIDTIAITNKDGKIVINGYNKVEDSGLTRPKYSLTLTDYDGSNNFNFVINMANMKIQPGNYKVMLWGAGDKVAAKFESSQVSYVIAMEADSTHDF | soluble
MQRMGMVIGVKPEMIAEYKRLHAAVWPEVLALISESNIRNYTIFLREPENLLFGYWEYHGSDFSADMAKIAASPKNQEWWSFTIPCQQPLESRKEGEWWAMMEETFHLD | not soluble
MAQYKGAASEAGRAMHLMKKREKQREQMEQMKQRIAEENIMKSNIDKKFSAHYDAVEAELKSSTVGLVTLNDMKAKQEALVKEREKQLAKKEQSKELQMKLEKLREKERKKEAKRKISSLSFTLEEEEEGGEEEEEAAMYEEEMEREEITTKKRKLGKNPDVDTSFLPDRDREEEENRLREELRQEWEAKQEKIKSEEIEITFSYWDGSGHRRTVKMRKGNTMQQFLQKALEILRKDFSELRSAGVEQLMYIKEDLIIPHHHSFYDFIVTKARGKSGPLFNFDVHDDVRLLSDATVEKDESHAGKVVLRSWYEKNKHIFPASRWEPYDPEKKWDKYTIR | soluble
MGSDKIHHHHHHMMGGKTLVLLDERLISLSMTDNRGFDADQVTLSVDDADGLLQLPPRGADLSVSIGWKGEALVYKGVFIVDEVAHSGPPDTLEVTARSADFRDEFNVKREISWHDLTVERVVSAIAHRYKLKPVISAQLMDLEIDHADQTQESDMSFLTRMAEMLGAIATVKNGCLLFILPGGGVSASGKPLPAAEITRSSGDRHSFRIADRDAYTGVRAYWLDLNFGKKKKVSVKRRKAKPKKEKSSSREGDYMEGEDGNVYVLRKTYQNETAAKRAAAAKWQQLQRGAAQFSITLARGRADLYPEVHVSVSGFKADIDNQEWIISRVEHVIDGSGFTSRLELEAKIADWIAESD | not soluble
MTDVTSPVVDEKPCFGANPQIFKLGLGKQHILAHDIGQGSQCRNLPTCRCEGLDLHFWRKMCKNCGCRMDEHDVVLPNEFDHAQIVIGRLFGAREHFEKVLTKPGMYKPNEQNETKENNMMSTRSQPTAVYNYKMASSDSESERGGSNNKENVQYAWAPLPDKNLVSRYMKALPEDERPLVGSKGEQNRKSRLQFQLPLYDCNVEDARFVEEKDVKTLQNFVENVRNNVIGVGRVVEIGKDSDNYGDNENTNEFEKSMTAALKGLKIGETDCKDCNEMMETGDIGVECHHHSTTDTYHPNCFRCETCRQLLVDNIYFFYKNKYYCGRHYADQLYPRCAGCDELIFANEYTFAEEKSWHFDHFACYKCDFKLGGSRYMTRDENPFCLDCYLKHFAKTCDTCQSKIGPDEKRLNYNETHWHAEERCFQCVQCKMNLIGKKFMLKNHKLLCSSQCKANYNSANPDDQL | not soluble
MQWSVWKMEESLDTLFSLLPDVRRVSCEQEMQRFTSDRRKLEWLSVRVLLYSMLQEDKEIGYSSEGKPHLTDNSSFISISHTKGYVAVILSSVAPVGIDIEQYGQRVKRVYDRFIRSDERVEPYQGDETWSMLLHWSAKETIFKSMENADADLRKLCLSHFIPQSEGVFQVREYATERQQLFTVGYRICPDFVLTWTVTIS | not soluble
